Laboratory results as given in patent US20180228802A1.
Residue numbers refer to the chain shown, from its start.

B1: Clone No. 1 (antibody, human IgG4 S228P, kappa, V domains shown)
VH: EVQLVQSGAEVKKPGESLRISCKGSGYTFTTYWMHWVRQATGQGLEWMGNIYPGTGGSNFDEKFKNRVTITADKSTSTAYMELSSLRSEDTAVYYCTRWTTGTGAYWGQGTTVTVSS
VL: EIVLTQSPATLSLSPGERATLSCKSSQSLLDSGNQKNFLTWYQQKPGQAPRLLIYWASTRESGVPSRFSGSGSGTEFTLTISSLQPDDFATYYCQNDYSYPYTFGQGTKVEIKR
B2: Clone No. 12 (antibody, human IgG4 S228P, kappa, V domains shown)
VH: B1 VH
VL: DIQMTQSPSSLSASVGDRVTITCKSSQSLLDSGNQKNFLTWYLQKPGQSPQLLIYWASTRESGVPSRFSGSGSGTDFTFTISSLEAEDAATYYCQNDYSYPYTFGQGTKVEIKR
B3: Clone No. 4 (antibody, human IgG4 S228P, kappa, V domains shown)
VH: EVQLVQSGAEVKKPGESLRISCKGSGYTFTTYWMHWIRQSPSRGLEWLGNIYPGTGGSNFDEKFKNRFTISRDNSKNTLYLQMNSLRAEDTAVYYCTRWTTGTGAYWGQGTTVTVSS
VL: B1 VL with Q48K, R51K, E76D, L79F, D87E, F89I
B4: Clone No. 2 (antibody, human IgG4 S228P, kappa, V domains shown)
VH: B1 VH
VL: DIQMTQSPSSLSASVGDRVTITCKSSQSLLDSGNQKNFLTWYQQKPGQAPRLLIYWASTRESGIPPRFSGSGYGTDFTLTINNIESEDAAYYFCQNDYSYPYTFGQGTKVEIKR
B5: Clone No. 5 (antibody, human IgG4 S228P, kappa, V domains shown)
VH: B1 VH
VL: B1 VL with Q48K, R51K, E76D, L79F, D87E, F89I
B6: Clone No. 16 (antibody, human IgG4 S228P, kappa, V domains shown)
VH: B3 VH with I37V, S40A, S42G, R43Q, L48M
VL: EIVLTQSPDFQSVTPKEKVTITCKSSQSLLDSGNQKNFLTWYQQKPGQAPRLLIYWASTRESGVPSRFSGSGSGTDFTFTISSLEAEDAATYYCQNDYSYPYTFGQGTKVEIKR
B7: Clone No. 3 (antibody, human IgG4 S228P, kappa, V domains shown)
VH: B3 VH
VL: B4 VL

The binders below were run against PD-1 (assay: competition binding, 2nd experiment; rank among the clones; competitor not given).
Sequence of PD-1 (chain, as listed by the source limits assumed): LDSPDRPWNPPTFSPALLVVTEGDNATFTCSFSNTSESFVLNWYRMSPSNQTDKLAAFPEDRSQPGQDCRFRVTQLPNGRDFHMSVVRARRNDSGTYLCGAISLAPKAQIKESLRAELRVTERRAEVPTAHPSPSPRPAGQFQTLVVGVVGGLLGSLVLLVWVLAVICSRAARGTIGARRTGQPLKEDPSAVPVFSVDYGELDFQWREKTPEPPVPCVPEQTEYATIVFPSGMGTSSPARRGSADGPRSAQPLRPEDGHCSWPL

Competition Binding, 2nd exp. (ranking) | Binder
2 | B1
16 | B2
15 | B3
2 | B4
> 4 | B5
15 | B6
14 | B7

What follows are binders tested against PD-1 (assay: FACS; rank of the clone among the humanized BAP049 clones; cells and conditions not described in this filing).

Ranking, FACS data | Binder
2 | B1
3 | B2
14 | B3
6 | B4
5 | B5
15 | B6
7 | B7

What follows are binders tested against PD-1 (assay: competition binding, 1st experiment; rank among the clones; competitor not given).

Competition Binding, 1st exp. (ranking) | Binder
7 | B1
8 | B2
15 | B3
3 | B4
5 | B5
16 | B6
8 | B7
